Assay results: patent publication US20220402983A1 (Janssen / Centocor, published 2022)
Bridges are numbered along the chain shown (N, C = ends). [ ]: non-standard residue; d: D form. The star is where a group is joined. Trp(7-Me) = Cc1cccc2c(C[C@H](N)C(=O)O)c[nH]c12; Phe(4-NH2) = Nc1ccc(C[C@H](N)C(=O)O)cc1; 2Nal = N[C@@H](Cc1ccc2ccccc2c1)C(=O)O; (N-benzyl)Asn = N-benzyl-asparagine; AEF = NCCOc1ccc(C[C@H](N)C(=O)O)cc1; αMeF = C[C@](N)(Cc1ccccc1)C(=O)O; Cit = NC(=O)NCCC[C@H](N)C(=O)O; αMeL = CC(C)C[C@](C)(N)C(=O)O; Pen = CC(C)(S)[C@H](N)C(=O)O; αMeK = C[C@](N)(CCCCN)C(=O)O; Ac5c = NC1(C(=O)O)CCCC1; Thp = NC1(C(=O)O)CCOCC1; Tfa = O=C(C(F)(F)F)*

Each binder was assayed against T1, human IL-23R (interleukin-23 receptor) (human, UniProt Q5VWK5 24-629) (assay: cell-based or functional assay).
T1 sequence (looked up): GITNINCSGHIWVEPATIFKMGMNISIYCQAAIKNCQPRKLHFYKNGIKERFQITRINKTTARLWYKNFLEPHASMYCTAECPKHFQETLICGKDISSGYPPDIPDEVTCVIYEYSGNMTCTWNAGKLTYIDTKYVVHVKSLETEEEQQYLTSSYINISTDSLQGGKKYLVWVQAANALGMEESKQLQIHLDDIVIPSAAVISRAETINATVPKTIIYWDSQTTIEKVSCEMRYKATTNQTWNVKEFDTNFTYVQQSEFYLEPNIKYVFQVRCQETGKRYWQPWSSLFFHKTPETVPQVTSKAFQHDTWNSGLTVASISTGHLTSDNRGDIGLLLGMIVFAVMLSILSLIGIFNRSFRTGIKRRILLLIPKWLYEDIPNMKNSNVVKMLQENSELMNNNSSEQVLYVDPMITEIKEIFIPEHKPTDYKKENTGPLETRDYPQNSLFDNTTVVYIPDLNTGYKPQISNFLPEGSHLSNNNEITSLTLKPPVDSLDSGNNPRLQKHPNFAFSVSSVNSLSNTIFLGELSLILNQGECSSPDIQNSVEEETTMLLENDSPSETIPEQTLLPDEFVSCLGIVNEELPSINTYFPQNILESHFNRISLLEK

Row | Binder | PBMC pSTAT3 IC50 (nM) | pStat3 HTRF (nM), IC50, DB cells IL23R pSTAT3 cell assay [nM]
1 | Ac-[dR][Pen]NTWK(Ac)[Pen][AEF][2Nal][Ac5c]EN[αMeF]-NH2 (disulfide 2-7; SMILES CC(=O)NCCCC[C@@H]1NC(=O)[C@H](Cc2c[nH]c3ccccc23)NC(=O)[C@H]([C@@H](C)O)NC(=O)[C@H](CC(N)=O)NC(=O)[C@@H](NC(=O)[C@@H](CCCNC(=N)N)NC(C)=O)C(C)(C)SSC(C)(C)[C@@H](C(=O)N[C@@H](Cc2ccc(OCCN)cc2)C(=O)N[C@@H](Cc2ccc3ccccc3c2)C(=O)NC2(C(=O)N[C@@H](CCC(=O)O)C(=O)N[C@@H](CC(N)=O)C(=O)N[C@@](C)(Cc3ccccc3)C(N)=O)CCCC2)NC1=O) [Compound No. 102] | 8.4 | –
2 | Ac-[Pen]NTWK(Ac)[Pen][AEF][2Nal][αMeK]K(Ac)N[αMeF]-NH2 (disulfide 1-6; SMILES CC(=O)NCCCC[C@@H]1NC(=O)[C@H](Cc2c[nH]c3ccccc23)NC(=O)[C@H]([C@@H](C)O)NC(=O)[C@H](CC(N)=O)NC(=O)[C@@H](NC(C)=O)C(C)(C)SSC(C)(C)[C@@H](C(=O)N[C@@H](Cc2ccc(OCCN)cc2)C(=O)N[C@@H](Cc2ccc3ccccc3c2)C(=O)N[C@@](C)(CCCCN)C(=O)N[C@@H](CCCCNC(C)=O)C(=O)N[C@@H](CC(N)=O)C(=O)N[C@@](C)(Cc2ccccc2)C(N)=O)NC1=O) [Compound No. 98] | 15 | –
3 | Ac-[Pen]NT[Trp(7-Me)]K(Ac)[Pen][AEF][2Nal][αMeK]K(Ac)N[Phe(4-NH2)]-NH2 (disulfide 1-6; SMILES CC(=O)NCCCC[C@@H]1NC(=O)[C@H](Cc2c[nH]c3c(C)cccc23)NC(=O)[C@H]([C@@H](C)O)NC(=O)[C@H](CC(N)=O)NC(=O)[C@@H](NC(C)=O)C(C)(C)SSC(C)(C)[C@@H](C(=O)N[C@@H](Cc2ccc(OCCN)cc2)C(=O)N[C@@H](Cc2ccc3ccccc3c2)C(=O)N[C@@](C)(CCCCN)C(=O)N[C@@H](CCCCNC(C)=O)C(=O)N[C@@H](CC(N)=O)C(=O)N[C@@H](Cc2ccc(N)cc2)C(N)=O)NC1=O) [Compound No. 112] | – | 2.09
4 | Ac-[dR][Pen]NTWK(Ac)[Pen][AEF][2Nal][Thp]EN[αMeF]-NH2 (disulfide 2-7; SMILES CC(=O)NCCCC[C@@H]1NC(=O)[C@H](Cc2c[nH]c3ccccc23)NC(=O)[C@H]([C@@H](C)O)NC(=O)[C@H](CC(N)=O)NC(=O)[C@@H](NC(=O)[C@@H](CCCNC(=N)N)NC(C)=O)C(C)(C)SSC(C)(C)[C@@H](C(=O)N[C@@H](Cc2ccc(OCCN)cc2)C(=O)N[C@@H](Cc2ccc3ccccc3c2)C(=O)NC2(C(=O)N[C@@H](CCC(=O)O)C(=O)N[C@@H](CC(N)=O)C(=O)N[C@@](C)(Cc3ccccc3)C(N)=O)CCOCC2)NC1=O) [Compound No. 106] | 13 | –
5 | Ac-[Pen]NT[Trp(7-Me)]K(Ac)[Pen][AEF][2Nal][αMeK]K(Ac)N[Thp][dY]-NH2 (disulfide 1-6; SMILES CC(=O)NCCCC[C@@H]1NC(=O)[C@H](Cc2c[nH]c3c(C)cccc23)NC(=O)[C@H]([C@@H](C)O)NC(=O)[C@H](CC(N)=O)NC(=O)[C@@H](NC(C)=O)C(C)(C)SSC(C)(C)[C@@H](C(=O)N[C@@H](Cc2ccc(OCCN)cc2)C(=O)N[C@@H](Cc2ccc3ccccc3c2)C(=O)N[C@@](C)(CCCCN)C(=O)N[C@@H](CCCCNC(C)=O)C(=O)N[C@@H](CC(N)=O)C(=O)NC2(C(=O)N[C@H](Cc3ccc(O)cc3)C(N)=O)CCOCC2)NC1=O) [Compound No. 107] | 11 | –
6 | Ac-[dR][Pen]NT[Trp(7-Me)]Q[Pen][AEF][2Nal][Ac5c]EN[Thp]-NH2 (disulfide 2-7; SMILES CC(=O)N[C@H](CCCNC(=N)N)C(=O)N[C@@H]1C(=O)N[C@@H](CC(N)=O)C(=O)N[C@@H]([C@@H](C)O)C(=O)N[C@@H](Cc2c[nH]c3c(C)cccc23)C(=O)N[C@@H](CCC(N)=O)C(=O)N[C@H](C(=O)N[C@@H](Cc2ccc(OCCN)cc2)C(=O)N[C@@H](Cc2ccc3ccccc3c2)C(=O)NC2(C(=O)N[C@@H](CCC(=O)O)C(=O)N[C@@H](CC(N)=O)C(=O)NC3(C(N)=O)CCOCC3)CCCC2)C(C)(C)SSC1(C)C) [Compound No. 99] | 4.2 | –
7 | Ac-[dR][Pen]NTWK(Ac)[Pen][AEF][2Nal][Thp]EN[Thp]-NH2 (disulfide 2-7; SMILES CC(=O)NCCCC[C@@H]1NC(=O)[C@H](Cc2c[nH]c3ccccc23)NC(=O)[C@H]([C@@H](C)O)NC(=O)[C@H](CC(N)=O)NC(=O)[C@@H](NC(=O)[C@@H](CCCNC(=N)N)NC(C)=O)C(C)(C)SSC(C)(C)[C@@H](C(=O)N[C@@H](Cc2ccc(OCCN)cc2)C(=O)N[C@@H](Cc2ccc3ccccc3c2)C(=O)NC2(C(=O)N[C@@H](CCC(=O)O)C(=O)N[C@@H](CC(N)=O)C(=O)NC3(C(N)=O)CCOCC3)CCOCC2)NC1=O) [Compound No. 105] | 2.2 | –
8 | Ac-[dR][Pen]NT[Trp(7-Me)]K(Ac)[Pen][AEF][2Nal][Ac5c]EN[Thp]-NH2 (disulfide 2-7; SMILES CC(=O)NCCCC[C@@H]1NC(=O)[C@H](Cc2c[nH]c3c(C)cccc23)NC(=O)[C@H]([C@@H](C)O)NC(=O)[C@H](CC(N)=O)NC(=O)[C@@H](NC(=O)[C@@H](CCCNC(=N)N)NC(C)=O)C(C)(C)SSC(C)(C)[C@@H](C(=O)N[C@@H](Cc2ccc(OCCN)cc2)C(=O)N[C@@H](Cc2ccc3ccccc3c2)C(=O)NC2(C(=O)N[C@@H](CCC(=O)O)C(=O)N[C@@H](CC(N)=O)C(=O)NC3(C(N)=O)CCOCC3)CCCC2)NC1=O) [Compound No. 101] | 0.74 | –
9 | Ac-[Pen]NT[Trp(7-Me)][Cit][Pen][AEF][2Nal][αMeL]K(Ac)N[Thp]-NH2 (disulfide 1-6; SMILES CC(=O)NCCCC[C@H](NC(=O)[C@](C)(CC(C)C)NC(=O)[C@H](Cc1ccc2ccccc2c1)NC(=O)[C@H](Cc1ccc(OCCN)cc1)NC(=O)[C@H]1NC(=O)[C@H](CCCNC(N)=O)NC(=O)[C@H](Cc2c[nH]c3c(C)cccc23)NC(=O)[C@H]([C@@H](C)O)NC(=O)[C@H](CC(N)=O)NC(=O)[C@@H](NC(C)=O)C(C)(C)SSC1(C)C)C(=O)N[C@@H](CC(N)=O)C(=O)NC1(C(N)=O)CCOCC1) [Compound No. 108] | 5.1 | –
10 | Ac-[dR][Pen]QTWQ[Pen][AEF][2Nal][Thp]EN[(N-benzyl)Asn]-NH2 (disulfide 2-7) [Compound No. 110] | 700 | –
11 | Ac-[Pen]NTWK(Tfa)[Pen][AEF][2Nal][αMeK]K(Ac)N[Thp]-NH2 (disulfide 1-6; SMILES CC(=O)NCCCC[C@H](NC(=O)[C@](C)(CCCCN)NC(=O)[C@H](Cc1ccc2ccccc2c1)NC(=O)[C@H](Cc1ccc(OCCN)cc1)NC(=O)[C@H]1NC(=O)[C@H](CCCCNC(=O)C(F)(F)F)NC(=O)[C@H](Cc2c[nH]c3ccccc23)NC(=O)[C@H]([C@@H](C)O)NC(=O)[C@H](CC(N)=O)NC(=O)[C@@H](NC(C)=O)C(C)(C)SSC1(C)C)C(=O)N[C@@H](CC(N)=O)C(=O)NC1(C(N)=O)CCOCC1) [Compound No. 103] | 57 | –
12 | Ac-[Pen]NT[Trp(7-Me)][Cit][Pen][AEF][2Nal][αMeL]K(Ac)N[αMeF]-NH2 (disulfide 1-6; SMILES CC(=O)NCCCC[C@H](NC(=O)[C@](C)(CC(C)C)NC(=O)[C@H](Cc1ccc2ccccc2c1)NC(=O)[C@H](Cc1ccc(OCCN)cc1)NC(=O)[C@H]1NC(=O)[C@H](CCCNC(N)=O)NC(=O)[C@H](Cc2c[nH]c3c(C)cccc23)NC(=O)[C@H]([C@@H](C)O)NC(=O)[C@H](CC(N)=O)NC(=O)[C@@H](NC(C)=O)C(C)(C)SSC1(C)C)C(=O)N[C@@H](CC(N)=O)C(=O)N[C@@](C)(Cc1ccccc1)C(N)=O) [Compound No. 104] | 8.2 | –
13 | Ac-[Pen]NT[Trp(7-Me)]K(Ac)[Pen][AEF][2Nal][αMeK]K(Ac)N[αMeF][dY]-NH2 (disulfide 1-6; SMILES CC(=O)NCCCC[C@@H]1NC(=O)[C@H](Cc2c[nH]c3c(C)cccc23)NC(=O)[C@H]([C@@H](C)O)NC(=O)[C@H](CC(N)=O)NC(=O)[C@@H](NC(C)=O)C(C)(C)SSC(C)(C)[C@@H](C(=O)N[C@@H](Cc2ccc(OCCN)cc2)C(=O)N[C@@H](Cc2ccc3ccccc3c2)C(=O)N[C@@](C)(CCCCN)C(=O)N[C@@H](CCCCNC(C)=O)C(=O)N[C@@H](CC(N)=O)C(=O)N[C@@](C)(Cc2ccccc2)C(=O)N[C@H](Cc2ccc(O)cc2)C(N)=O)NC1=O) [Compound No. 100] | 21 | –
